Experimental data as given in article PMC3852654.

Tests used:
[1] = molecular target: Rap2a (resistance-associated protein 2a, immunity protein of Ssp2), without N-terminal periplasmic targeting sequence (Serratia marcescens); assay: crystal structure; Rap2a alone, 13.5 mg/ml; reservoir 25% PEG 1000, 0.1 M MES pH 6.5; 1.9 A; four molecules in the asymmetric unit
[2] = molecular target: Rap1a (resistance-associated protein 1a, immunity protein of Ssp1), without N-terminal periplasmic targeting sequence (Serratia marcescens); assay: SEC; Rap1a alone in solution (Supplementary Fig. S1)
[3] = molecular target: Rap1a (resistance-associated protein 1a, immunity protein of Ssp1), without N-terminal periplasmic targeting sequence (Serratia marcescens); assay: crystal structure; Rap1a alone; reservoir 25% PEG 3350, 100 mM bis-tris pH 5.5; about 2.0 A; two molecules in the asymmetric unit

Substance | stoichiometry N [1] | stoichiometry N [2] | stoichiometry N [3]
Rap2a (resistance-associated protein 2a, immunity protein of Ssp2), without N-terminal periplasmic targeting sequence (natural protein) | 2 | – | –
Rap1a (resistance-associated protein 1a, immunity protein of Ssp1), without N-terminal periplasmic targeting sequence (natural protein) | – | 2 | 2
